Test: soluble fraction after stress (log2 fold change); higher = more stays soluble; pooled small domains, quantitative proteomics
Conditions: stress: pH 4
How it was run: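 High-throughput quantitative proteomics was run on pooled custom libraries of small protein domains following pH 4 stress. Fold changes are on a log2 scale; higher values mean more of a domain remained soluble. The fold change in soluble amount is taken as a measure of aggregation propensity.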

Sequence | soluble fraction (log2)
HMKGTLPEMITSREEVVLKFMVNGWDAKRIASELDISVLTVRKHIANIYEKLHVQSKAEIISMAHQQKWFN | -0.731
HMKGTSIELIVPQDIAGLRLDQVLAKLLPQWSRSRLQSWINEKHITVNGQTTTAKQKLWGNETIQIIPPI | -0.0718
HMKHEFSEEWLDWIKSNIADGQNKNGLFKVLLNHGYAYDAVREVMQYEPTVPLDELVDPLRA | -0.953
HMKHFNDEELDGFAGLKSDDYNEEQVELFRNIFEELHPDEIIEWTESLRRRGIEIPSSLKDEVVMMIN | -1.69
HMKHFTYEEMELMSIYDPGTREGLIANLEEMRGYLEPDETELRELTDSALEKLRELSDADYEQLELI | -1.48
HMKHMTMYEAAKIAKEVGAPKLWLTHYSPSMTRPEEFMDDVRKIFPAAYAAKDGWTMELNFDEG | -0.385
HMKHRTQMDIQQLPAIEGKGGFEYKISIIHLSTRIKYSEIHDNYNTTTIAKVYENAIERLPPF | -1.13
HMKHSLNHLGLWLLPELSRRDIQLREFAHLLGTTSQGLSDLLRGQRFSSHTLAQWQLRFQEKLDEIDQAS | -0.236
HMKHTVSVDRLQPGVFVSLGGLSWLDHPFLLNRFRLTDHDQIKVLRSLGVKEIEWDPTRSTAQPLPE | -0.724
HMKIAPRTAENQQLRKMILEIYTTSKKRVGPAKVRRMLLRDYGISISIGRVYRLMSTMNLPKMS | 0.22
HMKIDLPIWLNKKAWEAWVEYKKERKQKLTPSIIKFQLRILEKNKEDHPEIIRNSITNGWTGLFPLK | -0.347
HMKIEDSNTIKLKANQAYKTHYYSEAIKLYDELLTKYEPNSEAIKLNLAHAHFKAKGFAAASKLYT | 0.22
HMKIELTDQQKSLVVDEWNKGEANPPSLLQLIRLAYPDQPHLDGRSKEGKAVKAFLATRDINPLA | -0.0382
HMKIETVENPLLERTEISALFDSKSGSLTRKEAIDLISKKARIDSSTVYAIKLSNSSGSTRIIGLFY | 0.00271
HMKIIDDIQEFAGVTKTQNTFFHIFNHLHQNGKQLILTSDRAPVMLQGMEERLLTRFKWGLVAELE | 0.158
HMKIKKIWFDGDYIYGMDERNNTYRQSLLWYSKLRNASAEERERYTFSTIGIHWRELDEDVSFESF | -1.78
HMKIKLQATEQQRKTLDELYVQLKKLEPTSKEDLSLLYRLENPHLVSKQEAQGLISIAIGRVGSLAIEQQ | 0.258
HMKINKQHLAFQIFGIRAKLGLSMEQFGELLGANKSSVSGWERGTVVPSSQRLKKIAELGKISLAELLTP | 0.276
HMKINVQETEVYRYLLERADRLYSMILGEERENLMERTRFFEKEVAKASLPHLPKLYDEFSIYLDRLERG | -0.555
HMKIPYGELIKLLNAAAPKLQDAQGWMDMEAAGQFIGSRWSYLDYGFKDWPDSFKTVHGLEIQGQRMRLA | -0.306
HMKIQISGSQRIDENVVVKVAGLSFPQSLLSLEPGQIESKLMQELPVQEVSVQRRLLPPGLDIQLVE | -0.246
HMKIQTYEDFRNAYPDIQGSLFGSAERYKTDLDWGDVAAKYDADEELKNVRNIFQLVRRYEQKYS | -0.643
HMKISIPQEYFEIYNVLKQRPMHINEISKILKKPVSEISGTISLMEIEGYITKLTTDQYVLKKI | -0.644

Sequence | soluble fraction (log2)
HMKITADQEIETAINYFKKSIAEKGWKGVNPDEFKQMNDYLSETFGYSATIKFQKALDEQGLMVDE | -0.429
HMKITININIETLSHHIKQSGVPLGRLQESVPDYNEIVTGNKSPTYQQLEKISKLIRVPLGLLVIESPL | -0.451
HMKITLAESVYERIRRDIITNQLKPGEKINIRELSTRYEASETPIRLALNRLASENIIEHFPRQGMRVK | -0.0624
HMKIVPEPGTVLIREYQEERHEVTVTLDGAFDYKGTLYSSLSEIARLITGTRWSGPVFFGLRS | -0.353
HMKIYDQVVDRIKDRISKGDMPQGSALPPERQLIDELNVSRSSLREGFRILEMMGLIESIPGKGRFVRTSR | -0.619
HMKKAIYPGSFDPLTLGHIDIIKRASGIVDELVVGVLNNSAKNSLFSLDERVSMIEEMTKDLPNVSVTSFD | -0.0125
HMKKEDFLEILRDYLKKGFSEDEVMDILRDYEEYFVDGIIEGKSEIEIIQSLGSPKEIANELLAES | -0.754
HMKKEQVIVPNVVGDTYDVALRKLTDAKLKVGETFPADREGHQGVIEKQSPAAGETVDEDTPVALFFKV | -0.384
HMKKERITWDERLERFAKYITENESLPYPSSKEHAWFEENKALYDAGELESVRAQSFSFLLKILRRMNLI | -0.449
HMKKGATVSGVIVEKTKKSLIIDLGAKTEGVVADKEFEFAIDFVKELKKGDEVKAIVISTDNDKGQVVLSL | ≥ 0.43
HMKKHALFTLFKHHNANGTTVWYARFWDDATQRYAIARSTGVLAQGKRERHDEAITVAREMASSIQFS | 0.264
HMKKHAPSLMRQIRRELKEGKSPESLLSKAKLISDSYYRSLSFYLLIPYLSPNSKQFQEAISLAGKDID | -0.216
HMKKKSYIVSFATDEDAQRFAREGFEVISLSGRQITVSLKGEMMPLVKALGSYQVVGLETVA | -0.72
HMKKLPDDANDIIERVSSRLAQKFRFGYHTIDDMKQQAALFAWEGIYDSWDDSRPLENFLWIHVRNRLYN | 0.18
HMKKLTGVQKAAILMIALGPDISSSIIKRLPENMVERITYEIANMTKITAQQRNDILKEFMDMTVAQ | -0.479
HMKKNTEALDYYKKAGANFPEDEVISSEYLFRAAQLQEVLGKTDEAVAIYKDIKAKYPTTEIGLNVDKFIL | -0.181
HMKKQLKSEAVADELRRKILSGGFPDKRLPRKDELTEYFQVSQKTVEAALKMLTAEGLIRGVKGTGIFVNG | 0.156
HMKKQLTISDGDWAGKVSSMLEDMGVINSASEFDKYLSDNGYSNVIKSGTYDVSPEDTFQELAEKIT | -1.05
HMKKRDAEIMLQREFKLTEAIAMVRDRDIQELLPIALYFKVNINQPTAEIRYNLLNIAKSKTQEFIEAFD | -1.03
HMKKRDANSQGTRLILFYMLQRLHTEYKLQGFVTYNQRRSFREIYDAYHALGGNGFGTAMWEEVKELDLK | -0.0682
HMKKTAAKVLGESEGKPVTVQSGRYGPYVQLGSIRATLPKDLEQDDVTLDRALELISAKAERAGK | 0.0406
HMKKTDFNVENYDIEELAAILNFKYVPLNQGLIRDRIKDMKQRFKNKPEYIKFFTDVEIKLVNNLNLFN | -1.01
HMKKTFSKSSVMEAIFRDIPNITIPNAHEVYTLIKNISVMNKRKSITSEDIEKAYDALGLTP | 0.145

Sequence | soluble fraction (log2)
HMKKTPLSELTNRAVELFIETVFMERNYSVSSQRQFISALKIFTVFYPQTKIHNLSLERLQSSFDKLLN | -0.564
HMKKTTEFAVTPEFQQRLEASPELKAAFQALTPGRQRAHLLFFAAPKQAQTRQARIEKSLPQIMAGKGLN | -0.0768
HMKKTVTDSVELLTFLKDIFTNTSTNKLRKMLTTGRVTVNNIVIHKAKHILVQNDVVEIGDK | -0.0253
HMKKVIEFKDVSFAFEKKPILQDFNLLVQNKDRIGIVGDNGVGKSTLLNLIAERLQPQSGQVII | 0.0777
HMKKVSVKPILELRAAGISMRKIETLMHVSRHTISAIYKAADAYSISWDNVKDFDEDKIYEMLFPPTP | ≥ 0.43
HMKKYEIIFNDLKQSIVNGKYSNEERLPPEETLAKKYQTSRVPVQQALNALVGIGMVKRIAGSGTYVTY | -0.212
HMKKYFPPKSRFNPNKYLLKDWMALGLSEKQSQSILNFIQRGIYSNSALEKIYVMPEEVFTLIKDSTYYEE | -1.26
HMKKYIEIYNYYKQLIESEQLKSGDKMPSVRKATKIFNVSKTTVQNAYFDLQADGYIIAAPKSGYYVTEM | -0.7
HMKKYLNIYNIIVNKIESKEYQSNDKLPSEKELMDQYNVSRDTVRKSLNMLEQNGYIQKTKGKGSFVLDIN | 0.409
HMKLEEITIIVPSLRLDNFVSDLARTSRSKAVQIIDSERVFINGQNETKASKQVKLGDVITSA | -0.767
HMKLHPRDQERTRAISARGERLYAVTVGDLRRRIGEMLEWFGRQIESQEPMRVAKAARRITDFFDQVEAFT | -2.15
HMKLIRLGKAAGELNVGMSTLAEFLQSKGHSVDPNPNTKLTPEQYALLRMEFAADQTLKKLTKQP | -0.117
HMKLKHANGNHPLTQQEKQNMIEEAAKHYGDYMTALGFDWKQDPNSSDTPMRVAKAFVNDLAEGVY | -0.348
HMKLLLSANISKLRKKYSMTQEQLAEALGVTFASVSKWERGVATPELKLIAEMADMFEVSIDALIGYEFRN | -1.41
HMKLPIEKESYRIIWDLEEESFRIRLKISENSPQEEKNILINQAIEDIENITGEPIDKSPYYVLYE | -1.04
HMKLPNSFGSIQKLSGNRRKPYRVVKTIGWDENGKQIRKTLGYYETRAKALQELALFNEKPYD | 0.22
HMKLTALWTANPKISAPIYSEPSTQSKTLGRIYQGASVKVYSFDPEWAYINSSGVVGYVLRRHLE | 0.326
HMKLTINIDAAHDGKTIKQLFAEKGYSLELIKKFKYDGAIEVNGERKTVRWVLREGDLLVLEAN | -0.683
HMKLTNIQYETLKVVVESRAKIDEEEGITIKLEDIKKYIDQAISFTGLVGDDEDYKKLFADMEYRFKIQ | -0.925
HMKLVAAGYHQNRLLVLLGIQAEELQAKRLLASFDRFRGREATPKPPIHDSARRWLRDTYHHVMNQVPVEL | -0.432
HMKMHKIIKERRLALNFTQEQVAKYLGVTTPAVNKWEKGISYPDISLLPALARLLDTDLNTLLSF | -1.26
HMKMLPAEVLTHPAVVALIERGAPTGSITPEEVRQASEDAAVEPRHLKALLAHLSALGISVQIP | -0.266
HMKMLSIQRREAIRALLLEKESITIAEVMEKFQISVETARRDFDALADEGFLNKVYGGATLKK | -1.24

— the domain aggregation screens of Martell et al. (2025)
